Data taken from patent publication US20180305427A1 (ACCELERON PHARMA, published 2018).

T1: myostatin (R&D Systems) (UniProt O14793 267-375)
T1 sequence (looked up): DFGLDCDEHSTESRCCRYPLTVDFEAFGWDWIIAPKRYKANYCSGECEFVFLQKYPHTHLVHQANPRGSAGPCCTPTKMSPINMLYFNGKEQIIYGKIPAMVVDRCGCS


Assays:
myostatin (R&D Systems) [1] = biological target: myostatin (R&D Systems) (UniProt O14793); assay: cell-based or functional assay
myostatin (R&D Systems) [2] = biological target: T1, myostatin (R&D Systems); assay: cell-based or functional assay

Molecule	IC50 (nM), inhibition of myostatin signaling, pGL3(CAGA)12 reporter gene assay in A204 cells (myostatin (R&D Systems) [1])	IC50 (nM), inhibition of myostatin signaling, pGL3(CAGA)12 reporter gene assay in A204 cells (myostatin (R&D Systems) [2])
Dual-arm WFIKKN2-G1Fc (from UniProt Q8TEU8 35-576) (Fc fusion)	> 100 nM	
Single-arm WFIKKN2-G1Fc (from UniProt P0DOX5 209-449) (Fc fusion)	2.9 nM	
Single-chain WFIKKN2-His6 (other) LPPIRYSHAGICPNDMNPNLWVDAQSTCRRECETDQECETYEKCCPNVCGTKSCVAARYMDVKGKKGPVGMPKEATCDHFMCLQQGSECDIWDGQPVCKCKDRCEKEPSFTCASDGLTYYNRCYMDAEACSKGITLAVVTCRYHFTWPNTSPPPPETTMHPTTASPETPELDMAAPALLNNPVHQSVTMGETVSFLCDVVGRPRPEITWEKQLEDRENVVMRPNHVRGNVVVTNIAQLVIYNAQLQDAGIYTCTARNVAGVLRADFPLSVVRGHQAAATSESSPNGTAFPAAECLKPPDSEDCGEEQTRWHFDAQANNCLTFTFGHCHRNLNHFETYEACMLACMSGPLAACSLPALQGPCKAYAPRWAYNSQTGQCQSFVYGGCEGNGNNFESREACEESCPFPRGNQRCRACKPRQKLVTSFCRSDFVILGRVSELTEEPDSGRALVTVDEVLKDEKMGLKFLGQEPLEVTLLHVDWACPCPNVTVSEMPLIIMGEVDGGMAMLRPDSFVGASSARRVRKLREVMHKKTCDVLKEFLGLHHHHHHH		1.4 nM
